# Residue numbers refer to the chain shown, from its start. Like-named read-outs stand apart in the source and are kept apart here.
# B1: SC113.36 (antibody, mouse IgG1, V domains shown)
# VH: QVQLKESGPDLVAPSQSLSITCTVSGFSLTSYGVHWVRQPPGKGLEWLGVIWAGGFTNYNSALMSRLSISKDNSKSQVFLKMSSLQTDDTAMYYCVREKDYRYSHYFDYWGQGTTLTVSS
# VL: DIVMSQSPSSLAVSVGEKVTLSCKSSLSLLYSSNQENYLAWYQQKPGQSPKLLIYWASTRESGVPDRFTGSGSGTDFTLTISSVKAEDLAVYYCQQYYSYPRTFGGGTKLEIK
# notes: mouse IgG1
# B2: SC113.51 (antibody, mouse IgG2a, V domains shown)
# VH: B1 VH with T21I, P40S, F56L, S83N, H105Y
# VL: B1 VL
# notes: mouse IgG2a
# B3: huSC113.57 (antibody, V domains shown)
# VH: QVTLKESGPVLVKPTETLTLTCTVSGFSLSTYGVHWIRQPPGKALEWLAVIWSGGTTDDNAAFISRVTISKDNSKSQVVLTMTNMDPVDTATYYCARNSYYGNLHYYTMDYWGQGTTVTVSS
# VL: EIVLTQSPATLSLSPGERATLSCRASESVDSYGISFLNWYQQKPGQAPRLLIYAASNQGSGIPARFSGSGSGTDFTLTISSLEPEDFAVYYCQQSKEVPWTFGGGTKVEIK
# notes: also called hSC113.57 (humanized SC113.57)
# B4: SC113.219 (antibody, V domains shown)
# VH: QVQLKQSGAELVRPGASVKLSCRASGYTFTDFYINWVKQRPGQGLEWIARIYPGSGNTHYNENFKGKATLTAEKSSSTAYMQLSSLTSEDSAVYFCAREVWDAMDHWGQGTSVTVSS
# VL: SIVMTQSPKSMSISVGERVTLSCKASENVGTYVSWYQQKPEQSPKLLIYGASNRYTGVPDRFTGSGSSAEFTLTISSVQAEDLADYYCGQSSSFPIFTFGTGAKLEIK
# B5: SC113.153 (antibody, V domains shown)
# VH: QVQLKQSGPGLVQPSQSLSITCTVSGFSLTSYGVHWVRQSPGKGLEWLGVIWSGGSTDDNAAFISRLSISKDNSKSQVFFKMNSLQADDTAIYYCARNYYYDGRYYAMDYWGQGTSVTVSS
# VL: DIVLTQSPASLAVSLGQRATISCRASESVEYYGTSLMQWYQQKPGQPPKLLIYVASNVESGVPVRFSGSGSGTDFSLNIHPVEEDDIAMYFCQQSRKVPWTFGGGTKLEIK
# notes: Murine hybridoma antibody
# B6: SC113.148 (antibody, V domains shown)
# VH: B5 VH with L11P, L67M, S70T, F80L, I92K, D102E, A107V, T118I
# VL: B5 VL with A9V, V54A, V64A
# B7: SC113.121 (antibody, V domains shown)
# VH: EVQLQQSGAELVKPGASVNLSCTASGFNIKDYYMHWMKQRPEQGLEWIGRIDPENGETRYAPKFQDKATITADTSSNTAYLQLRSLTSEDTAIYYCGRLDFYFDFWGQGTTLTVSS
# VL: QIVLSQSPAILSASPGEKVTMTCRASSSVSYMHWYQQKPGSSPKPWIYATSNLASGVPARFSGSGSGTSYSLTISRVEAEDAATYYCQQWSSNPPTFGSGTKLEIK
# B8: SC113.150 (antibody, V domains shown)
# VH: B7 VH with N19K, M34L, A61G, D66G, T74A, F105Y
# VL: B7 VL with K18R, S30N, M32I, V77M, E104A
# B9: SC113.167 (antibody, V domains shown)
# VH: B7 VH with N19K, M37V, E46Y, N55A, K63N, D66G, G97A, F105S
# VL: B7 VL with A59G, A82T, S91F, S92T
# B10: SC113.201 (antibody, V domains shown)
# VH: QVQLKQSGPSLVQPSQSLSITCTVSGFSLTNYGVHWVRQSPGKGLEWLGVIWRGGGTDSNAAFMSRLTITKDNSKSQVFFKMSSLQADDTAIYYCAKNTRYDARGYYAMDYWGQGTSVTVSS
# VL: not shown
# B11: SC113.61 (antibody, V domains shown)
# VH: EVQLVESGGDLVKPGGSLKLSCAASGFTFSNYGMSWVRQTPDKRLEWVATISNGGISTYYPDSVKGRFTISRDNAKNTLYLQMNSLKSEDTAMYYCVRPGRGYFDYWGQGTTLTVSS
# VL: DIVMTQAAPSVPVTPGESVSISCRSNKSLLHSDGNTYLYWFLQRPGQSPQLLIYRMSNLASGVPDRFSGSGSGTAFTLRISRVEAEDVGVYYCMQHLEYPWTFGGGTKLEIK
# modifications: MSD SULFO-TAG NHS Ester label on amines (sites not given)
# notes: Murine hybridoma antibody, sulfo-tagged for use as detection antibody; The label may sit on either chain; also called SC113.61 detection antibody
# B12: SC113.70 (antibody, mouse IgG2b, V domains shown)
# VH: DVQLQESGPDLVKPSQSLSLTCTVTGYSITSGYTWHWIRQFPGNKLEWMGYIIYSGGTNYNPSLKSRISITRDTSKNQFFLQLNSVTPEDTATYYCASLLRPLDYWGQGTTLTVSS
# VL: B11 VL with N26S, D33N, N35D, Y37F, W101F, G105A, I111L
# notes: mouse IgG2b
# B13: SC113.35 (antibody, mouse IgG2b, V domains shown)
# VH: DVQLQESGPDLVKPSQSLSLTCTVTGYSITSGYGWHWIRQFPGNKLEWMGYIDYSGNNNYNPSLKSRISITRDTSKNQLFLQLNSVTAEDTATYFCARIYYDAMDYWGQGTSVTVSS
# VL: DIVMTQSHKFMSTSVGERVSITCKASQDVGGAVAWYQQKPGQSPKLLIYWASTRHTGVPDRFTGSGSGTDFTLTISNVQSEDLADYFCQQYSSYPLTFGAGTKLDLK
# notes: mouse IgG2b
# B14: SC113.46 (antibody, V domains shown)
# VH: QIQLVQSGPELKKPGETVKISCKASGYSFTNYGMNWVKQTPRKGLKWVGWINTYTGETTYADDFKGRFAFSLETSASTAYLQINNLKNEDMATYFCARIYGYGWFAYWGQGTLVTVSA
# VL: DIQMTQSPSSLSASLGERVSLTCRASQEISGYLSWLQQKPDGTIKRLIYAASTLDSGAPKRFSGSRSGSDYSLIISSLESEDFADYYCLQYSSYPYTFGGGTKLEIK
# notes: mouse antibody, isotype N/A
# B15: SC113.133 (antibody, V domains shown)
# VH: QVQLQQSGAELVRPGSSVKISCKASGYAFSSSWINWVKQRPGQGLEWIGQIYPGDGDTNYNGKFKGKATLTADKSSNTAYLQLNSLTSEDSAVYFCARTPIFAYWGQGTLVTVSA
# VL: B14 VL with S34T, T53I, A58V, I74T, S92A, Y96W
# B16: SC113.57 (antibody, V domains shown)
# VH: QVQLKQSGPGLVPPSQSLSISCTVSGFSLTTYGVHWVRQSPGKGLEWLGVIWSGGTTDDNAAFISRVSITKDNSKSQVFFKMNSLQADDTAIYYCAKNSYYGNLHYYTMDYWGQGTSVTVSS
# VL: not shown
# notes: Murine hybridoma antibody with kappa light chain; also called SC113.57 capture antibody
# What was measured:
# [1] = biological target: T1, hTNFSF9-His (monomeric human TNFSF9 extracellular domain with 9x-Histidine tag) (human, UniProt P41273 50-254); assay: SPR (Biacore)
# T1 construct: also called hTNFSF9-His protein; monomeric hTNFSF9-His antigen
# [2] = biological target: T2, cynomolgus TNFSF9 (cTNFSF9) protein, soluble recombinant (cynomolgus); assay: SPR (Biacore)
# T2 construct: extracellular domain; also called cynomolgus TNFSF9 protein
# [3] = biological target: T3, human TNFSF9 (hTNFSF9), full length, overexpressed on HEK293T cells (human, UniProt P41273 1-254); assay: cell-based or functional assay
# [4] = biological target: T4, cynomolgus TNFSF9 (cTNFSF9), full length, overexpressed on HEK293T cells (cynomolgus); assay: cell-based or functional assay
# [5] = biological target: T5, human TNFSF9 (R&D Systems; #2295-4L-025/CF) (human, UniProt P41273 71-254, limits assumed); assay: MSD ELISA: TNFSF9 + 1 ug/mL antibody, binding to coated TNFRSF9
# T5 construct: also called TNFSF9 (ligand); TNFSF9 ligand
# [6] = biological target: T1, hTNFSF9-His (monomeric human TNFSF9 …); assay: SPR (Biacore); remark: listed apart in the source
# [7] = biological target: T2, cynomolgus TNFSF9 (cTNFSF9) protein, …; assay: SPR (Biacore); remark: listed apart in the source
# [8] = biological target: T3, human TNFSF9 (hTNFSF9), full length, …; assay: cell-based or functional assay; remark: listed apart in the source
# [9] = biological target: T4, cynomolgus TNFSF9 (cTNFSF9), full …; assay: cell-based or functional assay; remark: listed apart in the source
# [10] = biological target: T5, human TNFSF9 (R&D Systems; …); assay: MSD ELISA: TNFSF9 + 1 ug/mL antibody, binding to coated TNFRSF9; remark: listed apart in the source
# T5 sequence (P41273 71-254 limits assumed): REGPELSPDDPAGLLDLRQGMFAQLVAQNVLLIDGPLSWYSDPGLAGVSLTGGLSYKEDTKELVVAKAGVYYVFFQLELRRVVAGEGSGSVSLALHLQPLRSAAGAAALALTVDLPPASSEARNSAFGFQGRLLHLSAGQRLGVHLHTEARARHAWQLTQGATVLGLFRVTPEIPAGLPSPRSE
# T1 sequence (P41273 other isoform, or with tags, fused parts or gaps): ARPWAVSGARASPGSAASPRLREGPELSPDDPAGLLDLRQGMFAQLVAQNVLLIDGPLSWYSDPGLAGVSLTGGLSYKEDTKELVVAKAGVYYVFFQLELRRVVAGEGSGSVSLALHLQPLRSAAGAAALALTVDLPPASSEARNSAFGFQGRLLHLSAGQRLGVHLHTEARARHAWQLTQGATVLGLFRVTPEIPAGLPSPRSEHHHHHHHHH
binder,measurement,setting,value
B1,Kd,[1],3 nM
same,Kd,[2],12 nM
same,"% live cells, Fab-saporin killing, 250 pM antibody",[3],17.8%
same,"% live cells, Fab-saporin killing, 250 pM antibody",[4],102%
same,% inhibition of ligand receptor interaction,[5],23%
B2,Kd,[6],3 nM
same,Kd,[7],28 nM
same,"% live cells, Fab-saporin killing, 250 pM antibody",[8],15.5%
same,"% live cells, Fab-saporin killing, 250 pM antibody",[9],108%
same,% inhibition of ligand receptor interaction,[10],99%
B3,% inhibition of ligand receptor interaction,[5],-38%
B4,% inhibition of ligand receptor interaction,[5],-37%
B5,% inhibition of ligand receptor interaction,[5],-84%
B6,% inhibition of ligand receptor interaction,[5],-63%
B7,% inhibition of ligand receptor interaction,[10],98%
B8,% inhibition of ligand receptor interaction,[10],98%
B9,% inhibition of ligand receptor interaction,[10],89%
B10,% inhibition of ligand receptor interaction,[5],-66%
B11,Kd,[6],6 nM
same,Kd,[7],11 nM
same,"% live cells, Fab-saporin killing, 250 pM antibody",[8],23%
same,"% live cells, Fab-saporin killing, 250 pM antibody",[9],29%
same,% inhibition of ligand receptor interaction,[10],48%
B12,Kd,[6],11 nM
same,Kd,[7],81 nM
same,"% live cells, Fab-saporin killing, 250 pM antibody",[8],95.1%
same,"% live cells, Fab-saporin killing, 250 pM antibody",[9],101%
same,% inhibition of ligand receptor interaction,[5],46%
B13,Kd,[1],4 nM
same,Kd,[2],10 nM
same,"% live cells, Fab-saporin killing, 250 pM antibody",[3],28.5%
same,"% live cells, Fab-saporin killing, 250 pM antibody",[4],69.6%
same,% inhibition of ligand receptor interaction,[10],73%
B14,Kd,[1],4 nM
same,Kd,[2],16 nM
same,"% live cells, Fab-saporin killing, 250 pM antibody",[3],28.3%
same,"% live cells, Fab-saporin killing, 250 pM antibody",[4],31.3%
B15,% inhibition of ligand receptor interaction,[10],66%
B16,Kd,[6],5 nM
same,Kd,[7],4 nM
same,"% live cells, Fab-saporin killing, 250 pM antibody",[8],11.6%
same,"% live cells, Fab-saporin killing, 250 pM antibody",[9],9.3%
same,% inhibition of ligand receptor interaction,[5],-35%
